For experiment [1], the target named is IL-12 (mouse; target of the rat anti-mouse mAbs C17.8 and C18.2) (mouse) (UniProt P43432). Kind of experiment: cell-based or functional assay.
The target of experiment [2] is T1, human p40 single mutant S43R (human, UniProt P29460 23-328).
T1 construct: Transiently expressed in HEK293E cells; supernatant used
T1 sequence: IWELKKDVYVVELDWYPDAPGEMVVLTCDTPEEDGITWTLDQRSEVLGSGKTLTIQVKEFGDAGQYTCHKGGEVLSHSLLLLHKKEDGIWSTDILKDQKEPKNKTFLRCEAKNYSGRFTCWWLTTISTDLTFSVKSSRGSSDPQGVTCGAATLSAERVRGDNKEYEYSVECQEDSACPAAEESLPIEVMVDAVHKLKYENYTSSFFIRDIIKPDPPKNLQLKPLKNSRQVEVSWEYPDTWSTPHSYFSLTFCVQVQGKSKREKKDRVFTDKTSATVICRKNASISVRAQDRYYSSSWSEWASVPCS
In words: capture assay, relative binding affinity to p40 muteins (FIG. 4). As to the method:
(§1) Seven human p40 single mutants, M23T, L40T, S43R, E45A, E45R, E59R, and D62R, and two double mutants, S43R/E45A and S43R/E45R, are used in the studies. The wide-type human p40, WT hu-p40, was used as the control. The p40 mutants were transiently expressed in HEK293E cells. The supernatants were used for binding assays.
(§2) In brief, MSD high bind plates (Meso Scale Discovery, MD) were coated with 5 μl of a capture monoclonal antibody (5 μg/ml) at room temperature for 1 hour. […] One-hundred and fifty (150) μl of 5% MSD Blocker A buffer was added to each well and incubated for 1 hr at room temperature. Plates were washed three times with 0.1 M HEPES buffer (pH 7.4). These protein-charged ELISA plates were incubated with 25 μl of different transiently expressed p40 mutant supernatants (1:10 dilution with 0.1 M HEPES buffer, pH 7.4) for 1 hr at room temperature. The plates were washed three times with 0.1 M HEPES buffer (pH 7.4). Twenty-five (25) μl of different concentrations of MSD Sulfo-TAG labeled p40 mAb, ranging from 0 to 20 μg/ml, were dispensed to micro-wells. After incubation for 2 hrs shaking at room temperature, plates were washed 3 times with 0.1 M HEPES buffer (pH 7.4). One hundred and fifty (150) μl of diluted MSD Read Buffer T was dispensed into each well and the plates were analyzed with a SECTOR imager (MSD).

Experiment [3] addresses T2, human p40 single mutant L40T (human, UniProt P29460 23-328).
T2 construct: Transiently expressed in HEK293E cells; supernatant used
T2 sequence: T1 sequence with L40T, R43S
The experiment is described as above. As to the method:
as §1, §2

Experiment [4] addresses T3, human p40 single mutant E45A (human, UniProt P29460 23-328).
T3 construct: Transiently expressed in HEK293E cells; supernatant used
T3 sequence: T1 sequence with R43S, E45A
The experiment is described as above. As to the method: as §1, §2

For experiment [5], the target named is T4, human p40 single mutant M23T (human, UniProt P29460 23-328).
T4 construct: Transiently expressed in HEK293E cells; supernatant used
T4 sequence: T1 sequence with M23T, R43S
Described as above. As to the method: as §1, §2

Residue numbers refer to the chain shown, from its start.

IL-12 (mouse; target of the rat anti-mouse mAbs C17.8 and C18.2) (mouse), sequence (P43432 23-335 limits assumed, chain 1 of 2): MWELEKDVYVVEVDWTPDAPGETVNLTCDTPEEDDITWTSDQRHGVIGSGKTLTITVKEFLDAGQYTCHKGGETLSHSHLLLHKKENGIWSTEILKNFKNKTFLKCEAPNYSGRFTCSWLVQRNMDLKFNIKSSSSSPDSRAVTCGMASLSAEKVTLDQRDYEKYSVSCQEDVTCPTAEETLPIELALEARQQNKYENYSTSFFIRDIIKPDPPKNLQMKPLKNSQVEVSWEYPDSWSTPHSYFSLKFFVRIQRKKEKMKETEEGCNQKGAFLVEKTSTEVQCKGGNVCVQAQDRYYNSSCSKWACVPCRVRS
IL-12 (mouse; target of the rat anti-mouse mAbs C17.8 and C18.2) (mouse), sequence (P43431 23-215 limits assumed, chain 2 of 2, further chain): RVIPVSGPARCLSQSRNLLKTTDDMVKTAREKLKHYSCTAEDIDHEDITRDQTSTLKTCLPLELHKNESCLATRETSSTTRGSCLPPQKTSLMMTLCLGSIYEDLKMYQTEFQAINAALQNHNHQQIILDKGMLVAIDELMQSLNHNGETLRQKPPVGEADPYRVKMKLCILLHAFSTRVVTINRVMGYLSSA

In the case of “C17.8 (rat anti-mouse IL-12/IL-23p40, IgG2a) (antibody)”, in experiment [1], the in vitro neutralization of IL-12, relative to the anti-p35 mAb (C18.2) (times (versus anti-p35 mAb)) was found to be 5.

B1: IL-12/IL-23p40 mAb (fully human monoclonal antibody directed against human IL-12/23p40) (antibody, V domains shown)
VH: EVQLVQSGAEVKKPGESLKISCKGSGYSFTTYWLGWVRQMPGKGLDWIGIMSPVDSDIRYSPSFQGQVTMSVDKSITTAYLQWNSLKASDTAMYYCARRRPGQGYFDFWGQGTLVTVSS
VL: DIQMTQSPSSLSASVGDRVTITCRASQGISSWLAWYQQKPEKAPKSLIYAASSLQSGVPSRFSGSGSGTDFTLTISSLQPEDFATYYCQQYNIYPYTFGQGTKLEIKR
notes: Whole IgG made in a mammalian cell line and purified on protein A; also called IL-12/23p40 mAb; IL-12p40 antibody
For B1, the reduction of binding in experiment [2] was ~40%; in experiment [3], ~40%; in experiment [4] it was ~70%; in experiment [5], ~40%.
